The experiment addresses T1, LgB-NIX (UniProt O60238 1-219).
T1 construct: also called NIX (NanoBiT Large BiT fusion); not shown: Large BiT (LgB), N-terminal, kept
Nature of the experiment: split reporter (BiFC, NanoBiT). The conditions noted are these: partners not purified.

T1 sequence (O60238 whole entry, the tested form may be a part): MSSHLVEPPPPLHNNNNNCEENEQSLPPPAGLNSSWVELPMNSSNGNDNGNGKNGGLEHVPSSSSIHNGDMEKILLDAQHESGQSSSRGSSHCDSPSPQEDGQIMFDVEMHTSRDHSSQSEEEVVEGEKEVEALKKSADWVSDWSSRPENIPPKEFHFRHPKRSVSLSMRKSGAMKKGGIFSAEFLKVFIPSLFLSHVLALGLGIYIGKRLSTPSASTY

B1: vIRF-1-SmB (natural protein)
chain: MDPGQRPNPFGAPGAIPKKPCLSQGSPGTSGSGAPCDEPSRSESPGEGPSGTGGSAAAGDITRQAVVAAITEWSRTRQLRISTGASEGKASIKDWIVCQVNSGKFPGVEWEDEERTRFRIPVTPLADPCFEWRRDGELGVVYIRERGNMPVDASFKGTRGRRRMLAALRRTRGLQEIGKGISQDGHHFLVFRVRKPEEEQCVECGVVAGAVHDFNNMARLLQEGFFSPGQCLPGEIVTPVPSCTTAEGQEAVIDWGRLFIRMYYNGEQVHELLTTSQSGCRISSALRRDPAVHYCAVGSPGQVWLPNVPNLACEIAKRELCDTLDACAKGILLTSSCNGIFCVCYHNGPVHFIGNTVPPDSGPLLLPQGKPTRIFNPNTFLVGLANSPLPAPSHVTCPLVKLWLGKPVAVGKLEPHAPSPRDFAARCSNFSDACVVLEIMPKPLWDAMQ
notes: also called vIRF-1-SmB (NanoBiT Small BiT fusion); source: 293T, transiently transfected, in cells; not shown: Small BiT (SmB), C-terminal, kept
In the case of B1, the “fold luminescence against HT-SmB with LgB-NIX” value is 10 fold.
